Laboratory results reported in US20240024426A1, “HYPOTENSIVE PHARMACEUTICAL COMPOSITION COMPRISING TRIPLE ACTIVATOR HAVING ACTIVITY FOR ALL OF GLUCAGON, GLP-1, AND GIP RECEPTORS” (HANMI PHARM. CO., LTD., priority 2020, published 2024).
Bridges are numbered along the chain shown (N, C = ends). Where no end group is shown, it is not given here. [ ]: non-standard residue; d: D form. The star is where a group is joined. Acetyl(2-(4-imidazolyl)) = O=C(Cc1c[nH]cn1)*; Aib = CC(C)(N)C(=O)O

T1: human GIP receptor (human, UniProt P48546 22-466)
T1 sequence (looked up): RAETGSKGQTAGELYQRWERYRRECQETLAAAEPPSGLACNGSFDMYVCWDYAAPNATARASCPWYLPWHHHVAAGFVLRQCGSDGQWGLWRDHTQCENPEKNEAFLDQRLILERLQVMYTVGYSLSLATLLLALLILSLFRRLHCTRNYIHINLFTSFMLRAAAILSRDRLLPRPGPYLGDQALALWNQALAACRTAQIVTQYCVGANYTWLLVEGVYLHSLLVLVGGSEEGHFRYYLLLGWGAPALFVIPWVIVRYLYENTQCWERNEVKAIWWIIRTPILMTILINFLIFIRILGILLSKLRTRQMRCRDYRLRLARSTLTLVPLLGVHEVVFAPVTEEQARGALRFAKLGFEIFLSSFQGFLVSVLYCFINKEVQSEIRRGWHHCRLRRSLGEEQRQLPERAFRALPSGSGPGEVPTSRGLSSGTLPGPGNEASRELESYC


Assays:
Experiment in all cases: cell-based or functional assay
[1] = biological target: human GCG receptor (human, UniProt P47871 26-477)
[2] = biological target: T1, human GIP receptor
[3] = biological target: human GLP-1 receptor (human, UniProt P43220 24-463)

Chain of human GCG receptor (P47871 26-477): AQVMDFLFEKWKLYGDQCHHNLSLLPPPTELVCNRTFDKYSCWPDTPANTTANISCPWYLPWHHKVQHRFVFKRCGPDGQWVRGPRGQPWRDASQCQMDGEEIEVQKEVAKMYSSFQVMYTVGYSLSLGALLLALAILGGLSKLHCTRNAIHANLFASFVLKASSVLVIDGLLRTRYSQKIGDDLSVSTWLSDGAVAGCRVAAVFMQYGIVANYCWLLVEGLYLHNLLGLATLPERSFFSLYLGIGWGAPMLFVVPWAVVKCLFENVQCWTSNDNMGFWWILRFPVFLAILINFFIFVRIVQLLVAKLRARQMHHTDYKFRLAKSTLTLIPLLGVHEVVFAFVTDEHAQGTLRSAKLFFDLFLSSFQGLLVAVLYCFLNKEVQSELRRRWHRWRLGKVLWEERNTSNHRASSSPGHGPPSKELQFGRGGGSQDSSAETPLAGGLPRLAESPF

Binder | In vitro activity compared with native peptide (%) vs. Glucagon [1] | In vitro activity compared with native peptide (%) vs. GIP [2] | In vitro activity compared with native peptide (%) vs. GLP-1 [3]
{Acetyl(2-(4-imidazolyl))}-[Aib]EGTFTSDYSIAMDEIHQKDFVDWLLAEKC (bridge 15-19) [Triple agonist of SEQ ID NO: 91] | 16.8% | 0.3% | 31.9%
{Acetyl(2-(4-imidazolyl))}-[Aib]QGTFTSDYSKYLDEKRQKEFVNWLLAQKC (bridge 15-19) [Triple agonist of SEQ ID NO: 93] | 0.3% | 0.7% | 5.7%
{Acetyl(2-(4-imidazolyl))}-[Aib]QGTFTSDYSKYLDEKRQKEFVQWLLDTKC (bridge 15-19) [Triple agonist of SEQ ID NO: 89] | 0.7% | < 0.1% | 7.1%
{Acetyl(2-(4-imidazolyl))}-[Aib]QGTFTSDYSIAMDEIHQKDFVNWLLNTKC (bridge 15-19) [Triple agonist of SEQ ID NO: 94] | < 0.1% | < 0.1% | 0.5%
{Acetyl(2-(4-imidazolyl))}-GEGTFISDLSKYMDEQAVQLFVEWLMAGGPSSGAPPPSHG [Triple agonist of SEQ ID NO: 12] | < 0.1% | < 0.1% | 0.4%
Y[Aib]QGTFTSDYSKALDEKAAKDFVNWLLDQHPSSGQPPPSC (bridge 16-20) [Triple agonist of SEQ ID NO: 102] | 29.5% | 58% | 23.3%
{Acetyl(2-(4-imidazolyl))}-[Aib]EGTFTSDYSIAMDEIHQKDFVDWLLAEC (bridge 15-19) [Triple agonist of SEQ ID NO: 84] | < 0.1% | < 0.1% | 4.2%
H[Aib]QGTFTSDVSKYLDGQAAQEFVAWLLAGC [Triple agonist of SEQ ID NO: 9] | 0.13% | < 0.1% | 32.1%
H[Aib]QGTFTSDVSKYLDGQAAQEFVAWLLAGGGPSSGAPPPSC [Triple agonist of SEQ ID NO: 10] | < 0.1% | < 0.1% | 46%
[Acetyl(2-(4-imidazolyl))][Aib]QGTFTSDYSIAMDEIHQKDFVNWLLAQKC (bridge 16-20) [Triple agonist of SEQ ID NO: 92] | < 0.1% | 0.4% | 0.8%
Y[Aib]QGTFTSDYSKYLDEKRAKEFVQWLLCHHPSSGQPPPS (bridge 16-20) [Triple agonist of SEQ ID NO: 95] | 0.4% | < 0.1% | 2.1%
{Acetyl(2-(4-imidazolyl))}-[Aib]QGTFTSDYSIAMDEIHQKDFVNWLLNTC (bridge 15-19) [Triple agonist of SEQ ID NO: 87] | < 0.1% | < 0.1% | 0.9%
{Acetyl(2-(4-imidazolyl))}-[Aib]QGTFTSDYSKYLDEKRQKEFVNWLLAQC (bridge 15-19) [Triple agonist of SEQ ID NO: 86] | 0.4% | 0.2% | 28.4%
Y[Aib]QGTFTSDYSKYLDEKRAKEFVQWLLDCHPSSGQPPPS (bridge 16-20) [Triple agonist of SEQ ID NO: 97] | 62.8% | 2.6% | 10.5%
{Acetyl(2-(4-imidazolyl))}-[Aib]QGTFTSDYSIAMDEIHQKDFVNWLLAQC (bridge 15-19) [Triple agonist of SEQ ID NO: 85] | < 0.1% | 0.3% | 4.3%
Y[Aib]QGTFTSDYSKYLDEKRAKEFVQWLLDHCPSSGQPPPS (bridge 16-20) [Triple agonist of SEQ ID NO: 96] | 195% | 5.2% | 34.4%
{Acetyl(2-(4-imidazolyl))}-GEGTFTSDLSKYLDSRRQQLFVQWLKAGGPSSGAPPPSHG [Triple agonist of SEQ ID NO: 11] | < 0.1% | < 0.1% | 1.4%
{Acetyl(2-(4-imidazolyl))}-[Aib]EGTFTSDYSIAMDEIHQKDFVNWLLAQC (bridge 15-19) [Triple agonist of SEQ ID NO: 83] | 1.3% | 0.4% | 47.3%
Y[Aib]QGTFTSDYSKALDEKAAKDFVNWLLDHHPSSGQPPPSC (bridge 16-20) [Triple agonist of SEQ ID NO: 99] | 14.9% | 57.7% | 20.9%
Y[Aib]QGTFTSDYSKALDEKAAKEFVNWLLDQHPSSGQPPPSC (bridge 16-20) [Triple agonist of SEQ ID NO: 101] | 13.9% | 40.1% | 23.2%
{Acetyl(2-(4-imidazolyl))}-[Aib]QGTFTSDYSKYLDEKRQKEFVQWLLDTC (bridge 15-19) [Triple agonist of SEQ ID NO: 82] | 1.1% | < 0.1% | 9.5%
{Acetyl(2-(4-imidazolyl))}-[Aib]QGTFTSDYSKYLDEKRQKEFVQWLLNTKC (bridge 15-19) [Triple agonist of SEQ ID NO: 88] | 0.3% | < 0.1% | 9.6%
{Acetyl(2-(4-imidazolyl))}-[Aib]EGTFTSDYSIAMDEIHQKDFVNWLLAQKC (bridge 15-19) [Triple agonist of SEQ ID NO: 90] | < 0.1% | < 0.1% | 7.4%
Y[Aib]QGTFTSDYSKALDEKAAKEFVQWLLDQHPSSGQPPPSC (bridge 16-20) [Triple agonist of SEQ ID NO: 100] | 12.7% | 118% | 42.2%
Y[Aib]QGTFTSDYSKALDEKAAKEFVNWLLDHHPSSGQPPPSC (bridge 16-20) [Triple agonist of SEQ ID NO: 98] | 8.2% | 47.1% | 28.1%
